System: recombinant human iduronate-2 sulfatase (rhIDS)
Sequence (chain, as listed by the source): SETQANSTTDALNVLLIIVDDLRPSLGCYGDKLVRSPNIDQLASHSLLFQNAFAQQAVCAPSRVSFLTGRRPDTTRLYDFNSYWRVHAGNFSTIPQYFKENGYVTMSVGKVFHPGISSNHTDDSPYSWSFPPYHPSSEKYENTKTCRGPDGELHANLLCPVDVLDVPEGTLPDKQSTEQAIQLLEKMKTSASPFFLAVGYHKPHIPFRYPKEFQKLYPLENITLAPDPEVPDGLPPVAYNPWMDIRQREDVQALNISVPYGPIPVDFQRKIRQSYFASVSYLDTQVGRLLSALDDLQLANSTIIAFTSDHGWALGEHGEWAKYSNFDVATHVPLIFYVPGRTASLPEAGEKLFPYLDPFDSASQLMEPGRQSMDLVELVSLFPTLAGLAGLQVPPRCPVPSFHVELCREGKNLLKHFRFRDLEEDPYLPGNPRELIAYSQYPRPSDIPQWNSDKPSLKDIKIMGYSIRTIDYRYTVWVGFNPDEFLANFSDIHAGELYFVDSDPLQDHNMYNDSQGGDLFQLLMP

Chain of Dendroctonus ponderosa Lip2-DpFGE-His6-HDEL fusion construct (chain, as listed by the source): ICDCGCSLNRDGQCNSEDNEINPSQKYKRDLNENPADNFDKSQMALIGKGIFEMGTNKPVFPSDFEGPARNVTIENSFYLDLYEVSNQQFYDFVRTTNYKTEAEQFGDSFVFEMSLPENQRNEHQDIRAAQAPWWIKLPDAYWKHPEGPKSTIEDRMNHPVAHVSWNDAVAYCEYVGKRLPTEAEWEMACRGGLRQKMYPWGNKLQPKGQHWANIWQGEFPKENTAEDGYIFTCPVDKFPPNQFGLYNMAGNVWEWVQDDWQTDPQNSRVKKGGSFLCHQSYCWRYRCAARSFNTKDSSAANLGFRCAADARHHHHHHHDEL

For “Dendroctonus ponderosa Lip2-DpFGE-His6-HDEL fusion construct”, which % activity of rhIDS; co-expression with DpFGE is on record?
Its % activity of rhIDS; co-expression with DpFGE is 5%.

Source: US20190040368
